Experimental data: paper PMC7927077, “Glucose-Binding of Periplasmic Protein GltB Activates GtrS-GltR Two-Component System in Pseudomonas aeruginosa” (Microorganisms, 2021)

B1: 6His-PA2788^LBD, the N-terminal 6His-tagged ligand-binding domain of PA2788 (residues 44-179) (domain or fragment)
chain: YLSMSISPETINVAGAQRMLSQKMAREALQLRLGAGDPKALAATIAQYERSAADLDAGNAERNVSRMGAPEIAAQRQKVAQIWGRYRAMLDQVAQPASQVDLRGFSQYSTELLGELNNLVSLMSARADSVQHTQMW

Experiments:
[1] = target: T1, GltB (periplasmic glucose-binding protein) (Pseudomonas aeruginosa, UniProt Q9HZ48); test: ITC ([…] °C, one-site model); supported by concentration-dependent thermal shift
T1 construct: gene PA3190; 6His-GltB, the N-terminal 6His-tagged GltB

[2] = target: 6His-GtrS^LBD, the N-terminal 6His-tagged ligand-binding domain of GtrS (residues 29-199) (P. aeruginosa PAO1) (UniProt Q9HZ47); test: SPR; OpenSPR localized SPR; 6His-GtrS^LBD fixed on COOH chip by capture-coupling; 6His-GltB injected at 1000, 500, 250, 125 nM; 50 mM Tris, 50 mM NaCl, pH 7.0, 25 °C; one to one model
[3] = target: 6His-GltB, the N-terminal 6His-tagged GltB (P. aeruginosa PAO1); test: SPR; OpenSPR localized SPR; 6His-GltB fixed on COOH chip by capture-coupling; 6His-PctA^LBD (1500-500 nM) or 6His-PA2788^LBD (500-100 nM) injected; 50 mM Tris, 50 mM NaCl, pH 7.0, 25 °C; one to one model

Molecule | Kd [3] [nM] | other results
OC[C@H]1OC(O)[C@H](O)[C@@H](O)[C@@H]1O (stereo partly shown) [glucose] | – | Kd [1]: 1370 nM
6His-GltB, the N-terminal 6His-tagged GltB (natural protein) | – | Kd [2]: 100 nM
6His-PctA^LBD, the N-terminal 6His-tagged ligand-binding domain of PctA (residues 30-278) (from UniProt G3XD24 30-278) (domain or fragment) | 800 | –
B1 | 400 | –
